Laboratory results taken from US20120184718A1.

Molecular target: human FAS polypeptide (human) (UniProt P25445)
Assay: cell-based or functional assay

Chain of UniProt P25445 (P25445 26-335 limits assumed): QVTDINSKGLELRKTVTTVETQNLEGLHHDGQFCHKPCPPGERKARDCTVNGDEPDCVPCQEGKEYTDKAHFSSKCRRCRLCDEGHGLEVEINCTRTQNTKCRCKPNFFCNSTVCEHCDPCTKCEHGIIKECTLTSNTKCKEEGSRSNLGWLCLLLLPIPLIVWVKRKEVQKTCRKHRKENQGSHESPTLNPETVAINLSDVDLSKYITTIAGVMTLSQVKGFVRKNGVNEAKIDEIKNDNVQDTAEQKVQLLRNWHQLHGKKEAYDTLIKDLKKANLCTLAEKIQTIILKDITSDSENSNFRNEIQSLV

- apoptosis (DNA fragmentation), U87-MG cells, 24 hours, cross-linked antibody (fold of cross-linked ApomAb): 2
Substance: HFE7A IgG (antibody)
